The source of these data is publication PMC10939263 (2024).

To fix the notation:
B1: SRC kinase associated phosphoprotein 1 (SKAP1), wild type, N2-fused [human] / FYN (isoform without exon 7), C1-fused [not stated] (parent complex)
chain 1: MQAAALPEEIRWLLEDAEEFLAEGLRNENLSAVARDHRDHILRGFQQIKARYYWDFQPQGGDIGQDSSDDNHSGTLGLSLTSDAPFLSDYQDEGMEDIVKGAQELDNVIKQGYLEKKSKDHSFFGSEWQKRWCVVSRGLFYYYANEKSKQPKGTFLIKGYGVRMAPHLRRDSKKESCFELTSQDRRSYEFTATSPAEARDWVDQISFLLKDLSSLTIPYEEDEEEEEKEETYDDIDGFDSPSCGSQCRPTILPGSVGIKEPTEEKEEEDIYEVLPDEEHDLEEDESGTRRKGVDYASYYQGLWDCHGDQPDELSFQRGDLIRILSKEYNMYGWWVGELNSLVGIVPKEYLTTAFEVEER
chain 2: not shown
B2: SRC kinase associated phosphoprotein 1 (SKAP1), wild type, N2-fused [human] / BLK, C1-fused [not stated] (parent complex)
chain 1: B1 chain 1
chain 2: not shown
B3: SRC kinase associated phosphoprotein 1 (SKAP1), wild type, N2-fused [human] / SRMS, C1-fused [not stated] (parent complex)
chain 1: B1 chain 1
chain 2: MEPFLRRRLAFLSFFWDKIWPAGGEPDHGTPGSLDPNTDPVPTLPAEPCSPFPQLFLALYDFTARCGGELSVRRGDRLCALEEGGGYIFARRLSGQPSAGLVPITHVAKASPETLSDQPWYFSGVSRTQAQQLLLSPPNEPGAFLIRPSESSLGGYSLSVRAQAKVCHYRVSMAADGSLYLQKGRLFPGLEELLTYYKANWKLIQNPLLQPCMPQKAPRQDVWERPHSEFALGRKLGEGYFGEVWEGLWLGSLPVAIKVIKSANMKLTDLAKEIQTLKGLRHERLIRLHAVCSGGEPVYIVTELMRKGNLQAFLGTPEGRALRLPPLLGFACQVAEGMSYLEEQRVVHRDLAARNVLVDDGLACKVADFGLARLLKDDIYSPSSSSKIPVKWTAPEAANYRVFSQKSDVWSFGVLLHEVFTYGQCPYEGMTNHETLQQIMRGYRLPRPAACPAEVYVLMLECWRSSPEERPSFATLREKLHAIHRCHP
B4: SRC kinase associated phosphoprotein 1 (SKAP1), wild type, N2-fused [human] / LYN, C1-fused [not stated] (parent complex)
chain 1: B1 chain 1
chain 2: MGCIKSKGKDSLSDDGVDLKTQPVRNTERTIYVRDPTSNKQQRPVPESQLLPGQRFQTKDPEEQGDIVVALYPYDGIHPDDLSFKKGEKMKVLEEHGEWWKAKSLLTKKEGFIPSNYVAKLNTLETEEWFFKDITRKDAERQLLAPGNSAGAFLIRESETLKGSFSLSVRDFDPVHGDVIKHYKIRSLDNGGYYISPRITFPCISDMIKHYQKQADGLCRRLEKACISPKPQKPWDKDAWEIPRESIKLVKRLGAGQFGEVWMGYYNNSTKVAVKTLKPGTMSVQAFLEEANLMKTLQHDKLVRLYAVVTREEPIYIITEYMAKGSLLDFLKSDEGGKVLLPKLIDFSAQIAEGMAYIERKNYIHRDLRAANVLVSESLMCKIADFGLARVIEDNEYTAREGAKFPIKWTAPEAINFGCFTIKSDVWSFGILLYEIVTYGKIPYPGRTNADVMTALSQGYRMPRVENCPDELYDIMKMCWKEKAEERPTFDYLQSVLDDFYTATEGQYQQQP
B5: SRC kinase associated phosphoprotein 1 (SKAP1), wild type, N2-fused [human] / FRK, C1-fused [not stated] (parent complex)
chain 1: B1 chain 1
chain 2: MSNICQRLWEYLEPYLPCLSTEADKSTVIENPGALCSPQSQRHGHYFVALFDYQARTAEDLSFRAGDKLQVLDTLHEGWWFARHLEKRRDGSSQQLQGYIPSNYVAEDRSLQAEPWFFGAIGRSDAEKQLLYSENKTGSFLIRESESQKGEFSLSVLDGAVVKHYRIKRLDEGGFFLTRRRIFSTLNEFVSHYTKTSDGLCVKLGKPCLKIQVPAPFDLSYKTVDQWEIDRNSIQLLKRLGSGQFGEVWEGLWNNTTPVAVKTLKPGSMDPNDFLREAQIMKNLRHPKLIQLYAVCTLEDPIYIITELMRHGSLQEYLQNDTGSKIHLTQQVDMAAQVASGMAYLESRNYIHRDLAARNVLVGEHNIYKVADFGLARVFKVDNEDIYESRHEIKLPVKWTAPEAIRSNKFSIKSDVWSFGILLYEIITYGKMPYSGMTGAQVIQMLAQNYRLPQPSNCPQQFYNIMLECWNAEPKERPTFETLRWKLEDYFETDSSYSDANNFIR

Variants of B1 are the subject of one experiment. Description: luciferase complementation assay (normalized luciferase ratio, NLR); HEK293T cells; one experiment; read off a plot.
As to chain 1 W333K, the ratio to parent is ~1.2.

In a further experiment the parent is B2. The description is as above.
For the variant chain 1 W333K, the ratio to parent is ~1.8.

A further experiment covers variants of B3. Described as above.
As for chain 1 W333K, the ratio to parent was ~1.3.

The variants in the next experiment derive from B4. The description is as above.
Turning to chain 1 W333K, the ratio to parent is ~2.

The variants in another experiment derive from B5. The experiment is described as above.
As to chain 1 W333K, the ratio to parent was ~1.2.
Same read-out and setting: the result for chain 1 D120K reads ~1.9.
